Source: patent US20120093787A1

Columns and labels:
[1] = target: wild-type CXCR4 isoform B (X4b-WT), expressed on CXCR4-/- B4 SupT1 cells by lentiviral transduction (UniProt P61073); assay: flow cytometry on X4b WT B4 SupT1 transfectants, PE goat anti-mIgG detection
[2] = target: C34-CXCR4 isoform B fusion protein (C34-X4b), expressed on CXCR4-/- B4 SupT1 cells by lentiviral transduction (Pan troglodytes (Chimpanzee)) (UniProt P61072); assay: flow cytometry on C34-X4b B4 SupT1 transfectants, PE goat anti-mIgG detection
UniProt P61072, sequence (P61072 1-352, tags or fused parts left off): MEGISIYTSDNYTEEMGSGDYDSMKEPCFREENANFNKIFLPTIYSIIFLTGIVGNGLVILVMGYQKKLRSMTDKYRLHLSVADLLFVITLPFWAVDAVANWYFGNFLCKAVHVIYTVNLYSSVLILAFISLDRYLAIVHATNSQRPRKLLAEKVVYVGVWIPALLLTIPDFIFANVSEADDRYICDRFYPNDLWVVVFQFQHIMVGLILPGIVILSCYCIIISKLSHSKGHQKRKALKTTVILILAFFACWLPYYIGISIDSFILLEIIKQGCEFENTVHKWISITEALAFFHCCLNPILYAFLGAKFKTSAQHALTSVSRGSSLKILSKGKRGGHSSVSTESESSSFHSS

UniProt P61073, sequence (P61073 whole entry, the tested form may be a part, canonical isoform): as the sequence (P61072 1-352, tags or fused parts left off) above

Substance	positively stained cells (%) [1] [%]	positively stained cells (%) [2] [%]	MFI [1] [MFI]	MFI [2] [MFI]
isotype control mIgG2a (antibody)	0.98	0.39		
isotype control mIgG1 (antibody)	0	0		
anti-CXCR4 monoclonal antibody 12G5 (BD Biosciences)	95.8	96.6	214	253
